{
  "source": "the Human Domainome abundance scans (Beltran et al. 2025)",
  "note": "± gives the uncertainty stated by the source.",
  "data": [
    {"experiment": "abundance fitness (aPCA) (normalised: wild type 0, dead -1); higher = more abundant; growth selection in yeast, the domain comes from the species named", "conditions": "Homo sapiens", "values": [
      {"substance": "Homeobox expressed in ES cells 1 A114T, Q9UBX0", "abundance fitness": "0.493 ± 0.057"},
      {"substance": "Homeobox expressed in ES cells 1 C131H, Q9UBX0", "abundance fitness": "0.419 ± 0.15"},
      {"substance": "Homeobox expressed in ES cells 1 D136F, Q9UBX0", "abundance fitness": "0.211 ± 0.24"},
      {"substance": "Homeobox expressed in ES cells 1 D140E, Q9UBX0", "abundance fitness": "-0.047 ± 0.07"},
      {"substance": "Homeobox expressed in ES cells 1 D150A, Q9UBX0", "abundance fitness": "0.089 ± 0.12"},
      {"substance": "Homeobox expressed in ES cells 1 G134D, Q9UBX0", "abundance fitness": "-0.02 ± 0.17"},
      {"substance": "Homeobox expressed in ES cells 1 I120L, Q9UBX0", "abundance fitness": "-0.192 ± 0.15"},
      {"substance": "Homeobox expressed in ES cells 1 I135V, Q9UBX0", "abundance fitness": "-0.069 ± 0.073"},
      {"substance": "Homeobox expressed in ES cells 1 I152V, Q9UBX0", "abundance fitness": "-0.315 ± 0.12"},
      {"substance": "Homeobox expressed in ES cells 1 I154V, Q9UBX0", "abundance fitness": "-0.028 ± 0.12"},
      {"substance": "Homeobox expressed in ES cells 1 K164W, Q9UBX0", "abundance fitness": "-0.547 ± 0.16"},
      {"substance": "Homeobox expressed in ES cells 1 N118Q, Q9UBX0", "abundance fitness": "-0.35 ± 0.35"},
      {"substance": "Homeobox expressed in ES cells 1 N125A, Q9UBX0", "abundance fitness": "-0.36 ± 0.12"},
      {"substance": "Homeobox expressed in ES cells 1 N130T, Q9UBX0", "abundance fitness": "-0.144 ± 0.066"},
      {"substance": "Homeobox expressed in ES cells 1 P111N, Q9UBX0", "abundance fitness": "0.704 ± 0.15"},
      {"substance": "Homeobox expressed in ES cells 1 Q117L, Q9UBX0", "abundance fitness": "-0.548 ± 0.16"},
      {"substance": "Homeobox expressed in ES cells 1 Q143M, Q9UBX0", "abundance fitness": "-0.011 ± 0.19"},
      {"substance": "Homeobox expressed in ES cells 1 R128A, Q9UBX0", "abundance fitness": "-0.277 ± 0.16"},
      {"substance": "Homeobox expressed in ES cells 1 V122E, Q9UBX0", "abundance fitness": "0.12 ± 0.15"},
      {"substance": "Homeobox expressed in ES cells 1 V129Q, Q9UBX0", "abundance fitness": "0.143 ± 0.25"}
    ]}
  ]
}
